Experimental data reported in US20140256916A1 (Sanofi, published 2014).
One block for each binder: values may come before it.

How the values were obtained:
[1] = molecular target: T1, CA6, tumor-associated MUC1-sialoglycotope (human, UniProt P15941 24-1255, carries the CA6 sialoglycotope (sialylated glycan epitope); sites not stated); experiment: flow cytometry on WISH (CA6+) cells (method from Example 4)
T1 construct: whole, on cells; In the assays it is presented on WISH cells (CA6+); A2780 cells are CA6 negative; also called CA6 antigen; human CA6 tumor antigen
Target sequence in this assay (P15941 24-1255): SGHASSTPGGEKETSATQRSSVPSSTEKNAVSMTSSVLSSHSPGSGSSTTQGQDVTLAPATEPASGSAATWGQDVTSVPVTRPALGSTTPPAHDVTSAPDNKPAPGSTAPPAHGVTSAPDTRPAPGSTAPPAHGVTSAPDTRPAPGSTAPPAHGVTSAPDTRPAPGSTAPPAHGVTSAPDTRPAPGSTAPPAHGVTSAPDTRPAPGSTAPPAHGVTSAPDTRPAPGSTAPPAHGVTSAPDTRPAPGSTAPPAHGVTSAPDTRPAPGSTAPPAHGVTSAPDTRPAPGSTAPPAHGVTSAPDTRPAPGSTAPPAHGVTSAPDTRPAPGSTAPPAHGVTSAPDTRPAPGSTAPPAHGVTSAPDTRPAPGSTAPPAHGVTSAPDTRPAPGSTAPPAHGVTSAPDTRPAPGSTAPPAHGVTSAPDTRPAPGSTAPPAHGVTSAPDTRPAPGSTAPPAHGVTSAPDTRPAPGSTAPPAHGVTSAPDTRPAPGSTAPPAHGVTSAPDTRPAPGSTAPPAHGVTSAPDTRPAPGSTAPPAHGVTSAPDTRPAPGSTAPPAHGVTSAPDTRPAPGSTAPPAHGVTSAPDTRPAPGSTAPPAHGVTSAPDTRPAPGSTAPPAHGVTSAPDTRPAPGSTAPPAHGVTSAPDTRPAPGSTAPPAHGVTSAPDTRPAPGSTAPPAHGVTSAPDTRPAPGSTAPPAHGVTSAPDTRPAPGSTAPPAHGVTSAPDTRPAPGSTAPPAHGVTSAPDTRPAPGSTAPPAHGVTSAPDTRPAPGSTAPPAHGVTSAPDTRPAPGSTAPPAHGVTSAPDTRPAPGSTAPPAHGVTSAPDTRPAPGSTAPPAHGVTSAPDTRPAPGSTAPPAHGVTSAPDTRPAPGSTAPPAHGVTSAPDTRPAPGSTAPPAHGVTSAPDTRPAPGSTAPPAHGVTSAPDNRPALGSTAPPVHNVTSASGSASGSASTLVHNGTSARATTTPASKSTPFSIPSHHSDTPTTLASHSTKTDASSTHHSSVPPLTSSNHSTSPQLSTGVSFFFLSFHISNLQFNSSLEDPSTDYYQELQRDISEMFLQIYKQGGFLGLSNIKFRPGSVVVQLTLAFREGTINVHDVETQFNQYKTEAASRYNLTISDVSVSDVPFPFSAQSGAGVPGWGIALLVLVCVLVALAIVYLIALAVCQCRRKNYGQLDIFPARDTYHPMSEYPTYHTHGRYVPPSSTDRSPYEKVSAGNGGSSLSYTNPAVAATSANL

[2] = molecular target: T1, CA6, tumor-associated …; experiment: FACS binding assay (Free), Kd app
T1 sequence (P15941 24-1255): as above

[3] = molecular target: T1, CA6, tumor-associated …; experiment: FACS binding assay (DOTA Conjugate), Kd app
[4] = molecular target: T1, CA6, tumor-associated …; experiment: flow cytometry (FACS) on WISH cells (CA6+), normalized fluorescence, without DOTA
[5] = molecular target: T1, CA6, tumor-associated …; experiment: flow cytometry (FACS) on WISH cells (CA6+), normalized fluorescence, with DOTA
[6] = molecular target: T1, CA6, tumor-associated …; experiment: flow cytometry (FACS) on WISH cells (CA6+)
Experimental: The B-Fab 1153 is a DS6-based engineered antibody-like binding protein containing a both L1 and L2 linkers as (G45)₂ and not containing a C-terminal 6x-His tag. Since this protein was lacking a His tag the protein was purified by […], Kappa-select and SEC. The in vitro binding solution was prepared at 1.6 mg/ml in PBS and binding affinity was characterized using flow cytometry in the WISH CA6+ cell line (FIG. 3C and FIG. 3D).

[7] = molecular target: T1, CA6, tumor-associated …; experiment: FACS binding assay (Free), Kd app; unconjugated (Free) B-Fab, not DOTA conjugate
[8] = molecular target: T2, CA6, tumor-associated MUC1-sialoglycotope (human, UniProt P15941 24-1255, carries the CA6 sialoglycotope (sialylated glycan epitope); sites not stated); experiment: flow cytometry (FACS) on WISH cells (CA6+)
Target sequence in this assay (P15941 24-1097, chain 1 of 2): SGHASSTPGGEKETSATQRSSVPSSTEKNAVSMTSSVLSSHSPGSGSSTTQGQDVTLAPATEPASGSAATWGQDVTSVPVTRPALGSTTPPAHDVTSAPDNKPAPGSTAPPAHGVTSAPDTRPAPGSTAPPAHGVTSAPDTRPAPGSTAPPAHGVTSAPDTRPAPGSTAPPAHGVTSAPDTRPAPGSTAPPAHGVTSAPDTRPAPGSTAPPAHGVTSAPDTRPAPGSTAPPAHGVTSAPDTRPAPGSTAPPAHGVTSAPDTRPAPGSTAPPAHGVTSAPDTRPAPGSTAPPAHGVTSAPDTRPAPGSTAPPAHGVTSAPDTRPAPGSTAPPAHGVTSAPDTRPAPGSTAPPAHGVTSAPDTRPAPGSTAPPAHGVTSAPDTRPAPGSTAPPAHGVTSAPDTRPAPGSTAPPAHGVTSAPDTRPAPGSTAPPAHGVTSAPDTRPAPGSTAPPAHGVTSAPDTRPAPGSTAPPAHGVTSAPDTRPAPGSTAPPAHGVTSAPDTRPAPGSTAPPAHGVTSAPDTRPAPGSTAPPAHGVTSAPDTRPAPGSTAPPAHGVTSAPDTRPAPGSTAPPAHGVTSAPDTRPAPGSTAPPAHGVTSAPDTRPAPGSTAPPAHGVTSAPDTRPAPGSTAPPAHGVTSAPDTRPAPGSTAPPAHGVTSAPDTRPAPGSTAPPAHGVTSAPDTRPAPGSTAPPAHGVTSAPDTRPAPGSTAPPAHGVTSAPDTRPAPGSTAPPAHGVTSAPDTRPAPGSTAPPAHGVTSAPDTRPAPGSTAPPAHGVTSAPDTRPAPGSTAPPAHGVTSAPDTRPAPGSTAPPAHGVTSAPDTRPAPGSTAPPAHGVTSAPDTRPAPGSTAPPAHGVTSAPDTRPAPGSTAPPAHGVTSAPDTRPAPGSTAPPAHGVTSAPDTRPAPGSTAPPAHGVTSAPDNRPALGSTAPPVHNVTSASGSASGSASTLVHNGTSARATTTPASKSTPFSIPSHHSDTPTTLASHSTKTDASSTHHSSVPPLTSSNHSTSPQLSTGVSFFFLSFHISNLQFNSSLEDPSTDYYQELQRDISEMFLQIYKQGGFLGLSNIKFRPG
Target sequence in this assay (P15941 1098-1255, chain 2 of 2): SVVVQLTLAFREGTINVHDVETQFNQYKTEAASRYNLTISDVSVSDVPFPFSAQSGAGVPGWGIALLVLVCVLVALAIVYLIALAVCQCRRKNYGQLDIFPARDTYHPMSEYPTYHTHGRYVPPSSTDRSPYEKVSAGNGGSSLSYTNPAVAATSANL

[9] = molecular target: T2, CA6, tumor-associated …; experiment: flow cytometry (FACS) on WISH cells (CA6+); remark: listed apart in the source
T2 sequence (P15941 24-1097, chain 1 of 2): as the sequence (P15941 24-1097, chain 1 of 2) above
T2 sequence (P15941 1098-1255, chain 2 of 2): as the sequence (P15941 1098-1255, chain 2 of 2) above

[10] = molecular target: T2, CA6, tumor-associated …; experiment: flow cytometry (FACS) on WISH cells (CA6+); remark: listed apart in the source
[11] = molecular target: T2, CA6, tumor-associated …; experiment: method not given; presumably flow cytometry on WISH (CA6+) cells as for the B-Fabs

B2: anti-CA6 diabody of SEQ ID NO: 12 fused to a tag of SEQ ID NO: 14 (other)
chain: EIVLTQSPATMSASPGERVTITCSAHSSVSFMHWFQQKPGTSPKLWIYSTSSLASGVPARFGGSGSGTSYSLTISSMEAEDAATYYCQQRSSFPLTFGAGTKLELKGGGSGGGGEAQLVQSGAEVVKPGASVKMSCKASGYTFTSYNMHWVKQTPGQGLEWIGYIYPGNGATNYNQKFQGKATLTADPSSSTAYMQISSLTSEDSAVYFCARGDSVPFAYWGQGTLVTVSAGGCGGHHHHHH
Kd [2]: 10 nM

B4: DS6 B-Fab antibody-like binding protein (variant not named) (Fab)
light: EIVLTQSPATMSASPGERVTITCSAHSSVSFMHWFQQKPGTSPKLWIYSTSSLASGVPARFGGSGSGTSYSLTISSMEAEDAATYYCQQRSSFPLTFGAGTKLELKGGGGSGGGGSEIVLTQSPATMSASPGERVTITCSAHSSVSFMHWFQQKPGTSPKLWIYSTSSLASGVPARFGGSGSGTSYSLTISSMEAEDAATYYCQQRSSFPLTFGAGTKLELKRTVAAPSVFIFPPSDEQLKSGTASVVCLLNNFYPREAKVQWKVDNALQSGNSQESVTEQDSKDSTYSLSSTLTLSKADYEKHKVYACEVTHQGLSSPVTKSFNRGEC
heavy: EAQLVQSGAEVVKPGASVKMSCKASGYTFTSYNMHWVKQTPGQGLEWIGYIYPGNGATNYNQKFQGKATLTADPSSSTAYMQISSLTSEDSAVYFCARGDSVPFAYWGQGTLVTVSAGGGGSGGGGSEAQLVQSGAEVVKPGASVKMSCKASGYTFTSYNMHWVKQTPGQGLEWIGYIYPGNGATNYNQKFQGKATLTADPSSSTAYMQISSLTSEDSAVYFCARGDSVPFAYWGQGTLVTVSAASTKGPSVFPLAPSSKSTSGGTAALGCLVKDYFPEPVTVSWNSGALTSGVHTFPAVLQSSGLYSLSSVVTVPSSSLGTQTYICNVNHKPSNTKVDKKVEPKSCDKTHT
notes: also called B-Fab DS6 based engineered antibody
EC50 (read off the curve) [4]: ~2 nM
Kd [4]: 2.2 nM

B7: B-Fab 1151 (Fab)
light: B4 light
heavy: B4 heavy
notes: It also carries a C-terminal 6x-His tag; also called B-Fab (G4S)2 linker and C-terminal 6x-His tag
Kd [1]: 3.4 nM

B8: B-Fab 1153 (Fab)
light: B4 light
heavy: B4 heavy
notes: also called B-Fab (G4S)2 linker; B-Fab (G4S)2 linker without C-terminal 6xHis tag
EC50 (read off the curve) [6]: ~2 nM
Kd [1]: 2.3 nM
Kd [7]: 4 nM

B9: Control DS6 monoclonal antibody (antibody, V domains shown)
VH: EAQLVQSGAEVVKPGASVKMSCKASGYTFTSYNMHWVKQTPGQGLEWIGYIYPGNGATNYNQKFQGKATLTADPSSSTAYMQISSLTSEDSAVYFCARGDSVPFAYWGQGTLVTVSA
VL: EIVLTQSPATMSASPGERVTITCSAHSSVSFMHWFQQKPGTSPKLWIYSTSSLASGVPARFGGSGSGTSYSLTISSMEAEDAATYYCQQRSSFPLTFGAGTKLELK
EC50 (read off the curve) [8]: ~2 nM
EC50 (read off the curve) [9]: ~2 nM
EC50 (read off the curve) [10]: ~2 nM
Kd [11]: 2 nM

Other lines, results leading:

Kd [1]: 88 nM
B1: B-Fab 1152 (Fab)
light: EIVLTQSPATMSASPGERVTITCSAHSSVSFMHWFQQKPGTSPKLWIYSTSSLASGVPARFGGSGSGTSYSLTISSMEAEDAATYYCQQRSSFPLTFGAGTKLELKGGGGSEIVLTQSPATMSASPGERVTITCSAHSSVSFMHWFQQKPGTSPKLWIYSTSSLASGVPARFGGSGSGTSYSLTISSMEAEDAATYYCQQRSSFPLTFGAGTKLELKRTVAAPSVFIFPPSDEQLKSGTASVVCLLNNFYPREAKVQWKVDNALQSGNSQESVTEQDSKDSTYSLSSTLTLSKADYEKHKVYACEVTHQGLSSPVTKSFNRGEC
heavy: EAQLVQSGAEVVKPGASVKMSCKASGYTFTSYNMHWVKQTPGQGLEWIGYIYPGNGATNYNQKFQGKATLTADPSSSTAYMQISSLTSEDSAVYFCARGDSVPFAYWGQGTLVTVSAGGGGSEAQLVQSGAEVVKPGASVKMSCKASGYTFTSYNMHWVKQTPGQGLEWIGYIYPGNGATNYNQKFQGKATLTADPSSSTAYMQISSLTSEDSAVYFCARGDSVPFAYWGQGTLVTVSAASTKGPSVFPLAPSSKSTSGGTAALGCLVKDYFPEPVTVSWNSGALTSGVHTFPAVLQSSGLYSLSSVVTVPSSSLGTQTYICNVNHKPSNTKVDKKVEPKSCDKTHT
notes: also called B-Fab G4S linker and C-terminal 6x-His tag; B-Fab DS6 based engineered antibody with GGGGS (G4S) linker and C-terminal 6x-His tag

Kd [3]: 7.5 nM
B3: DOTA conjugate of the anti-CA6 diabody (SEQ ID NO: 12 fused to SEQ ID NO: 14) (other)
chain: B2 chain
modifications: DOTA chelator conjugated, sites not stated
notes: Homodimeric diabody conjugated to DOTA; also called Diabody (DOTA Conjugate)

EC50 (read off the curve) [5]: ~6 nM
Kd [5]: 6.6 nM
B5: DOTA-DS6 conjugated antibody (B-Fab with DOTA, variant not named) (Fab)
light: B4 light
heavy: B4 heavy
modifications: DOTA chelator conjugated, sites not stated

Kd [3]: 7.4 nM
B6: DOTA conjugate of B-Fab 1153 (Fab)
light: B4 light
heavy: B4 heavy
modifications: DOTA chelator conjugated, sites not stated (1.5-2.5 DOTA/fragment)
notes: also called B-Fab (DOTA Conjugate)
